In assay [1] the test system is feline CD20 expressed in mammalian cells. Briefly: FACS binding to cells expressing recombinant feline CD20. As to the method:
(§1) The binding of the antibody variants of the present invention raised to canine CD20 can be assessed by FACS analysis for their binding to feline CD20 according to standard immunological techniques (see Veterinary Immunology and Immunopathology 2005, 106:179-196; Brousseau et al., Manual of Immunology Methods, CRC Press, 1998). In the present example, the antibody variants (2.5 μg/mL) are incubated with mammalian cells expressing the recombinant feline CD20 or canine CD20 or control cells. The amount of bound antibody is assessed by detection with a fluorescent-labeled reporter antibody reagent. Several controls are utilized to determine the background fluorescence: (i) CD20 expressing cells are incubated with the conjugated secondary antibody with an isotype antibody, and (ii) Control cells are incubated with the anti-CD20 antibodies.
For orientation: In flow cytometry, cells or beads pass a laser one at a time.

In the next assay the test system is Control Cells. Briefly: FACS binding to control cells. The settings on record: antibody 2.5 μg/mL. As to the method:
In the present example, the antibody variants (2.5 μg/mL) are incubated with mammalian cells expressing the recombinant feline CD20 or canine CD20 or control cells. The amount of bound antibody is assessed by detection with a fluorescent-labeled reporter antibody reagent. Several controls are utilized to determine the background fluorescence: (i) CD20 expressing cells are incubated with the conjugated secondary antibody with an isotype antibody, and (ii) Control cells are incubated with the anti-CD20 antibodies.

The target of a further assay is T1, recombinant canine CD20 (Canis lupus familiaris, UniProt Q3C2E2, A201T/C77Y/G273E/L198V).
T1 construct: are transfected with an expression vector encoding the full-length canine CD20 protein; expressed in transfected cells; host or cells: CHO cells (CHO-DG44)
T1 sequence (Q3C2E2 1-297 C77Y/L198V/A201T/G273E): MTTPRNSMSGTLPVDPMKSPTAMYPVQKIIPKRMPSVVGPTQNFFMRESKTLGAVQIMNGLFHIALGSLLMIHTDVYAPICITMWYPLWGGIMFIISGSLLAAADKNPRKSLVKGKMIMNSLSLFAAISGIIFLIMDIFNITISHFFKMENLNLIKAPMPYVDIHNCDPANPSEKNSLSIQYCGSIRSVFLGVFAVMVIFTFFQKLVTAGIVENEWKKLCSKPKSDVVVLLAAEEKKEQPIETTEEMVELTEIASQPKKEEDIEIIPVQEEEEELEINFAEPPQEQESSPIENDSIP
Briefly: Competition experiments (epitope mapping) on CHO cells expressing recombinant canine CD20. It counts as binding. Conditions: unlabelled competitor 25 μg/mL. As to the method: Competition experiments are performed using standard techniques. Briefly, biotinylated recombinant anti-canine CD20 antibodies are titrated on CHO cells expressing recombinant canine CD20. Cells are first incubated with an excess of unlabelled recombinant anti-canine CD20 antibody (25 μg/mL). Thereafter, cells are incubated with a biotin-labeled antibody at 2 μg/mL. After washing, cells are incubated with streptavidin- phycoerythrin and fluorescence is analyzed by flow cytometry. An irrelevant antibody is used as negative control for inhibition. Results are expressed as a ratio between fluorescence intensity of the cells pre-incubated with the unlabelled antibody and the fluorescence intensity obtained for each biotinylated antibody alone. The percentage of inhibition (PI) is calculated by the following formula: PI=[1−(Experimental-Background)/Biotinylated antibody alone−Background)]×100%.

The target of assay [2] is T2, recombinant canine CD20 expressed in HEK cells (Canis lupus familiaris, UniProt Q3C2E2, A201T/C77Y/G273E/L198V).
T2 construct: expressed in transfected cells; host or cells: HEK cells
T2 sequence (Q3C2E2 1-297 C77Y/L198V/A201T/G273E): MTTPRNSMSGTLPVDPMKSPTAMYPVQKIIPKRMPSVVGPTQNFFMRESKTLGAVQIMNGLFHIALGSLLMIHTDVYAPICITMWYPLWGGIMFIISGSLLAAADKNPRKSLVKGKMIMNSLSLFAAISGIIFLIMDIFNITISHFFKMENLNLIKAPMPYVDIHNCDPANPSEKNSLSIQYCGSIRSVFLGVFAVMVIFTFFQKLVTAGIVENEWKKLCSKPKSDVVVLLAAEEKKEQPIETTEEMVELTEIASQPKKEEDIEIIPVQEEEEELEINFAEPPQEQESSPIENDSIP
In words: FACS binding to cells expressing recombinant canine CD20. As to the method: as §1

In assay [3] the target is T3, recombinant canine CD20 expressed in CHO cells (Canis lupus familiaris, UniProt Q3C2E2, A201T/C77Y/G273E/L198V).
T3 construct: are transfected with an expression vector encoding the full-length canine CD20 protein; expressed in transfected cells; host or cells: CHO cells (CHO-DG44)
T3 sequence (Q3C2E2 1-297 C77Y/L198V/A201T/G273E): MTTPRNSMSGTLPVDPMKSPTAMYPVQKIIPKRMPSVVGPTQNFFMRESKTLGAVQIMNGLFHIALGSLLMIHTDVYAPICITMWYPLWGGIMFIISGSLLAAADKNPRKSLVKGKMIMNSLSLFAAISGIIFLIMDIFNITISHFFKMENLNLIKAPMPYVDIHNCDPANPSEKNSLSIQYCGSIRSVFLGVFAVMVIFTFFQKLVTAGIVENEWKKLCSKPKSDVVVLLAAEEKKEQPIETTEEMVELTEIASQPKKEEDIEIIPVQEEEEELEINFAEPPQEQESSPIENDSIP
Briefly: Binding affinity to recombinant canine CD20 expressed in CHO cells by FACS. Conditions: CHO cells expressing canine CD20. As to the method: The antibody variants of the present invention are compared for their binding affinity to canine CD20. Binding affinity is assessed by measuring binding to the recombinant canine CD20 expressed in CHO cells by FACS analysis as described above.

Chain of feline CD20 expressed in mammalian cells (as listed by the source): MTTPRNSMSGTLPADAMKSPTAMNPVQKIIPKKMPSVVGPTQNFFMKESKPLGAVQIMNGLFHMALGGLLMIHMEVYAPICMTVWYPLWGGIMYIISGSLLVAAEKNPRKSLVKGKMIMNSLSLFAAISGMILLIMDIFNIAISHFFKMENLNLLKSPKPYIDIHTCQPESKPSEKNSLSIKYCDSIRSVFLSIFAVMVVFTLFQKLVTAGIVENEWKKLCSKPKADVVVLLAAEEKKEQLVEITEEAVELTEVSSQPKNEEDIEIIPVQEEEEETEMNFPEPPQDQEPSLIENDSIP

B1: CD20-5: anti-canine CD20 antibody; full length HC SEQ ID NO. 40, LC SEQ ID NO. 41 (antibody)
heavy: QVQLKQSGAELVKPGASVKISCKASGYTFTDYYINWVKQRPGQGLEWIGKIGPRSGSIYYNEKFKGKATLTADKSSSTAYMQLRSLTSEDSAVYFCAVLKWGQGTLVTVSSASTTAPSVFPLAPSCGSQSGSTVALACLVSGYFPEPVTVSWNSGSLTSGVHTFPSVLQSSGLYSLSSMVTVPSSRWPSETFTCNVAHPASKTKVDKPVPKRENGRVPRPPDCPKCPAPEMLGGPSVFIFPPKPKDTLLIARTPEVTCVVVDLDPEDPEVQISWFVDGKQMQTAKTQPREEQFNGTYRVVSVLPIGHQDWLKGKQFTCKVNNKALPSPIERTISKARGQAHQPSVYVLPPSREELSKNTVSLTCLIKDFFPPDIDVEWQSNGQQEPESKYRTTPPQLDEDGSYFLYSKLSVDKSRWQRGDTFICAVMHEALHNHYTQKSLSHSPGK
light: DAVMTQIPLTLSVTIGQPASISCKSSQSLLHSDGKTYLNWLLQRPGQSPKRLIYLVSKLDSGVPDRFTGSGSGTDFTLKISRVEAEDLGVYYCWQGTHFPQTFGGGTHLTVLGQPKASPSVTLFPPSSEELGANKATLVCLISDFYPSGVTVAWKADGSPITQGVETTKPSKQSNNKYAASSYLSLTPDKWKSHSSFSCLVTHEGSTVEKKVAPAECS
modifications: canis familiaris/mus musculus
notes: anti-canine CD20 antibody; 41
The term Kd denotes a measure of binding affinity in units of concentration. Take B1: the “mean fluorescence, Feline CD20” value in assay [1] (antibody 2.5 μg/mL) is recorded as 2048 mean fluorescence units. The “binding to feline CD20 (in words)” value in assay [1] (mammalian cells) is given as “bind feline CD20”. The “mean fluorescence, Control Cells” value with Control Cells stood at 215 mean fluorescence units. Further, the “percentage of inhibition (PI), labeled antibody CD20-1” value with recombinant canine CD20 (biotin-labeled CD20-1 2 μg/mL) worked out at 107.07%. Also, in the assay with recombinant canine CD20 (biotin-labeled CD20-2 2 μg/mL), the “percentage of inhibition (PI), labeled antibody CD20-2” value amounted to 6.47%. Further, the “percentage of inhibition (PI), labeled antibody CD20-5” value with recombinant canine CD20 (biotin-labeled CD20-5 2 μg/mL) was determined as 85.88%. Besides, in assay [2], the “binding to recombinant canine CD20 (in words)” value is reported as “effective binding”. The “mean fluorescence, Canine CD20” value in assay [2] (antibody 2.5 μg/mL) stood at 2769 mean fluorescence units. In addition, in assay [3], the Kd was determined as 1.2 nM.
